Measurements reported in patent US20040253233A1 (CENTRO DE INMUNOLOGIA MOLECULAR CIM, published 2004).

Molecular target: T1, murine monoclonal antibody P3
T1 construct: Murine IgM with kappa light chain from hybridoma ECACC 94113026, coated on the ELISA plate; FR4 segments are printed short; also called Mab P3; MAb P3
Assay: ELISA, plate coated with Mab P3, purified chimeric 1E10 detected with goat anti-human antibody-alkaline phosphatase, absorbance at 405 nm
Experimental: For recombinant MAb 1 E10, Microtiter plates were coated with Mab P3. After washing with PBST (saline phosphate buffered solution containing 0.05% Tween 20), unspecific binding was blockade with bovine sera albumin (BSA) 1% in PBST, incubated for one hour at 37° C.
The wells were washed and incubated for 1 hour at 37° C. with purified recombinant Mab 1E10. The wells were washed with PBST and a goat anti-human antibody conjugated with alkaline phosphatase was added and incubated at 37° C. for one hour. Finally, the wells were washed with PBST and the substrate buffer containing p-nitrophenylphosphate was added.

T1 sequence (VH, as listed by the source, chain 1 of 2): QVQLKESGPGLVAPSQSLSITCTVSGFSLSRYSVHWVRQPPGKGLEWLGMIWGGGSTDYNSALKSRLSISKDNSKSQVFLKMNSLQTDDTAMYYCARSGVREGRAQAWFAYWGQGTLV
T1 sequence (V domain, as listed by the source, chain 2 of 2): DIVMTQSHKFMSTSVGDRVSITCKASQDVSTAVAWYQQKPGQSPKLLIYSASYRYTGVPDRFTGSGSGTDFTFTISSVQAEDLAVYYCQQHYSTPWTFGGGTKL

B1: chimeric Mab 1E10 (antibody, V domains shown)
VH: QVQLQQSGAELVKPGASVKLSCKASGYTFTSYDINWVRQRPEQGLEWIGWIFPGDGSTKYNEKFKGKATLTTDKSSSTAYMQLSRLTSEDSAVYFCAREDYYDNSYYFDYWGQGTTLTV
VL: DIQMTQTTSSLSASLGDRVTISCRASQDISNYLNWYQQKPDGTVKLLIYYTSRLHSGVPSRFSGSGSGTDYSLTISNLEQEDIATYFCQQGNTLPWTFGGGTKLESK
notes: FR4 segments are printed short, so the variable domains may lack their last residues; also called Mab 1E10 chimeric; recombinant MAb 1E10
binding result: binds
